From the nanobody polyreactivity screen of Harvey et al. (2022)

Experiment: yeast display, Sf9 membrane polyspecificity reagent, FACS + sequencing; frameworks hold sequencing errors
In short: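 Synthetic nanobody libraries on Saccharomyces cerevisiae BJ5465 were galactose-induced for 36–48 hours, stained 1 hour at 4 °C with 10% biotinylated, detergent-solubilized Sf9 membrane reagent and enriched on streptavidin microbeads. FACS then separated cells into low and high (top ~1%) gates by anti-HA (expression) and streptavidin (reagent binding) fluorescence. Genes were colony-PCR amplified, MiSeq 2 × 250 sequenced and CDR-length filtered. A clone's polyreactivity label is that of its gate of origin.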

Sequence | polyreactivity (PSR sort gate)
QVQLQESVGGLVQAGGSLRLSCPASGSIFKVVDMVLYRQAPAKEREFVATIGVGGNTYYADSVKGRFTISRDNAKNTVYLQMNSLKPEDTAVYFYAVVLGTSYRYTYWGQGTQVTVSS | low polyreactivity
QVQLQESVGGLVQAGGTLRLSCAGRGNIYTHQLYMGSYRQAPGKEIDFVAAINFGASPYYADSVKGRNTISRDNAKNTVYLLMNSLKPEDTAVYYCAADSAFYDEYQEDYWGQGTQVTLSS | low polyreactivity
QVQLQESVVGLEQAGGSLRLSCAASGNIFPTDRMGWYRQAPGKELEFVATISHGGSTNYADSVKGRFTISRVNAKNTVYLQLNSLKPEDTAVYYCAVWSLGRWRHYYWGQGTQVTVSS | low polyreactivity
QVQLQETGGGLVQAGGSLRQSCAASRSISPWSYMGRYRQAPGKEREFVASINAGTNTYYADSAKGRITISRDNAKNTVYLQMNSLKPEDTAAYYCAARYWNDYYFPYWGQGTEVTVSS | low polyreactivity
QVQLQETGGGLVQVGGSQRLSCAASGNIFYNYAMGWYRHAQGKEREFDATINHGTSINDADSVKGRFTISRDNAKNTVYLQMNSLTPEDTAVYYCAADLSWTDNLFYWGQGTQETVSS | low polyreactivity
QVQLQGSGGGLAQAGDSLRLSCAASGTIFSEYNNGLVSPGAGQRTRTCCRYWCWGNTYYADSAKGRFTTSRDNAKNTVYLQKNSLKPEDTAVYYCAFNRPYPSRHIYRGQGTQVTVSS | high polyreactivity
QVQLQGSGGGLAQAGDSLRLSSEASGTIFSEYNNGLVSPGAGQRTRTCCRYWCWGNTYYPDSAKGRFTTSLDNAKNTVYLQKNSLKPEDTEVYYCAFNRPYPSRHIYRGQGTQVTVSS | high polyreactivity
QVQLQVSGGDLVQAGGSLRLSCAASGTIYGLTAMGWYRLAPGKEREFVAAITDGGNTNYADSVKGRFTISRDNAINTVYLQMISLKPEDTAVYYCAVLFSDDAYYAYWGQGTQVTVSS | low polyreactivity
QVQLQVSGGGLVNAGGSLRLSCAASGNISPRDAMGWYLQAPGEERDLVASNAYSAITYYADGVTGRSTISRDNAKNTEYLQMNSLKPEDTEVYYCAVYQFTYPVFPAYWGQGTQVTVSS | low polyreactivity
QVQLVASGGGLVQAGGSHRLSCAASGRIFYYYAMGWYRQAPGKERELVASINSGGSTYYADSVKGPFTISRDNAKHTVYFQMNSLKPEDTACYYCAAGFQLVKGSLSGRAAYYYWGQGTQVTVSS | high polyreactivity
QVQLVASGGGLVQAGGSLRLSCAASGRIFYAYAMGWYRQAPGKERELVAAITISASSTYYADSVKGRFTFSRDNAKNTVYLQMNSLKPEETAVFYCAAAYRRPWWYSYRYGYWGQGTQVTVSS | high polyreactivity
QVQLVASGGGLVQAGGSLRLSCAASGSIFARYALGWYSQAPGKEREWVAALRWSGGRTYYADSVKGRFTISRDNAKNTVYLQMNSLKPEDTAVDYCNAVIHRLGKTYGTNRVDYWGQGTQVTVSS | high polyreactivity
QVQLVASGGGLVQAGGSLRLSCAASGSTFGSNAMGWYRQAPGKERELVAPINSGDSTSYADSVKGRFTISRDNAKNTVYLQMNSLKPEDTAVYYCATRYYTFVWRHDYWGQGTQVTVSS | low polyreactivity
QVQLVASGGGLVQAGGSLRLSCAASGSTFPRYAMGWYRQAPWKERELVAAITTSGGSTYYADSVKGRFTISRDNAKNTVYLQMNRLKPEDTAVYYCAADYCYYLDAGYYWGQGTQVTVSS | low polyreactivity
QVQLVASGGGLVQAGGSLRLSCAASGYTLFRNAMGWYRQAPGKERELVAAISRSGARTYYADSVKGRFTISRDNAKNTVYLQMNSLLPEDTAVYYCAAVIKWTKDDYWGQGTQVTVSS | high polyreactivity
QVQLVASGVGLVQAVGSLRLSCAASGITFQYYTMGWYRQAPGKERELVAAINWSGGSTYYADSVKGRFTISRDNAKNTVYLQMNSLKPEDTAVYYCNAVRFVEHDYWGQGTQVTVSS | high polyreactivity
QVQLVDSAGGLVQAGGTLRLSCADSGFTCSYYAMGWYRQAPGTERELVAAITSGGSTDYADSVKGRFTISRDNEKNTFYLQMHSLKPVDTAVFYCKITPYYAVFYYWGPGTQVTVSS | high polyreactivity
QVQLVDSCGGLVQAGGSLRLSFAASGRIYGPYAMGWYRQAPGKERELVAAISFSGSGTYYADSVKGRFTISRDNAKNTVYLQMNSLKPEDTAVYYCAADRWAHTHRLGYWGQGTQVTVSS | low polyreactivity
QVQLVDSEVGLVQAGGSHRLSCSASARTFGRYAMGWYRQAPGKERELVATIRWRVGSTYYADSVKGSFTISRDNAKNTVYLQMNSLKPEDTAVFYCAARRYSSGLTDDYWGQGTQVTVSS | high polyreactivity
QVQLVDSGGALVQAGGSLRLRCAASGSTFFPNAKGWYRQAPGKERELVATIKYADSVKGRFTISRYNAKNTVYLQMNSLKPEDTAVYYCAGGGRVRYDYWGQGTQVTVSS | low polyreactivity
QVQLVDSGGGIVQAGGSLRLSCAASGSTFGRKVMGWYRQAPGKERELVAAISFRGGSTYYADSVKGRFTISRDNAKNTVYLQMNSLKPEDTAVYYCARDYPTDAYDYWGQGTQVTVSS | low polyreactivity
QVQLVDSGGGLDQAGGSLRLSCAASGYTFWLYAMGWYRQAPGKERELVAAISRGGITNYADSVKGRFTISRDNAKNTVYLQMNSLKPEDTAVYYCAAEYRGRGWRYGYDDWGQGTQVTVSS | high polyreactivity

Sequence | polyreactivity (PSR sort gate)
QVQLVDSGGGLLQAGGSLRLSCAASGRIFVYNAMGWYRQAPGKERELVAAITRGGSTYYADSVKGRFTISRDNAKNTVDLQMNSLKPEDPAGYYCAADYAWVSIYDNVPSAPGYDDWGQGTQGTVSS | low polyreactivity
QVQLVDSGGGLLQAGGSLRLSFAASGRTLNHYVMGWYRQAPGKERELVAAISSGGSTYYADSVKGRFTISRDNAKNTVYLQMNSLKPEDTAVYYCNAGVVGDYPYWGLMDYWGQGTKVTVSS | high polyreactivity
QVQLVDSGGGLVQAGASLRLSCAASGRIITAYYAMGWYRQAPGKERELVASISSSGTSTYADSVKGRFTISRDYAKNTVYLQMKSLKPEDTAVYYCATRKQRTRRYDYGYWGQGTQVTVSS | low polyreactivity
QVQLVDSGGGLVQAGGILRLSCAASGRIFYYNTMGWSRQAPGKERELVARITYSGGRTYYADSVKGRFTISRDNAKNTVYLQMNSLKPEDTAVYYCAARRRTFYATSSAINGYDYWGQGTQVTVSS | high polyreactivity
QVQLVDSGGGLVQAGGRLRLSCAASGRTFRTNAMGWYRQAPGKERELVAAISRTGRTNYADSVKGRFTISRDNAKNTVYLQMNSLKPEDTAVYYCAADRVGWSGYRGDYWGQGTQVTVSS | high polyreactivity
QVQLVDSGGGLVQAGGSHRLSCAASGSTFYGNLMGWYRQAPGRERELVAAISGGCSTNYADSVKGRFTISRDNEKNTVYLQLNSLKPEDTAVYYCAARGVIRVGNAARYVAGYYWGQGTQVTVSS | high polyreactivity
QVQLVDSGGGLVQAGGSLLLICAASGSTIPRNAMGWYRQAPGKERELVAAITSGGSTNYADSVKGRFTISRDNAKNTVYLQMNSLKPEDTAVYYCAADEQVNTQYVVWGDYWGHGTQVTVSS | low polyreactivity
QVQLVDSGGGLVQAGGSLLLSCAASGFTFTIYAMGWNRQAPGKERELVATISGRAGRTYYADSVKGRFTISRDNAKNTVYLQMNSLKPEDTAVYYCNAGQWRYPGLYYYWGQGTQVTVSS | high polyreactivity
QVQLVDSGGGLVQAGGSLLLSCAASGHTLYRNAMGWYRQAPGKERELVAAITSRGGSTFYADSVKGRFTISRDNAKNSVYLQMNCLQPEDTAVYYCNTARGTAPAHDYWGQGTQVTVSS | low polyreactivity
QVQLVDSGGGLVQAGGSLPLICADAGSTFNSYAMGRYRQAPGKKRELVAAIRWIGDSTYADSVKGRFTISRDNATNTVYLQMNSLKPVDTAVYYCAATDVSWGVDYWGQCTQVTVSS | low polyreactivity
QVQLVDSGGGLVQAGGSLRLICAASGLIFYKYAMGWYRQAPGKERELVASISTGGGSTYYADSVKGRFTISRDNAKNTVYLQMNSLQPEDTAVYYCAARWWRRFRGSHSLYDYWGQGTEVTVSS | high polyreactivity
QVQLVDSGGGLVQAGGSLRLRCAASGRTFTPYAMGWYRQAPGQERELVATISSGTSTNYADSVKGRFTISRDNAKNTVYLQMNSLKPEDTAVYDCAADGYTYKFDYWGQGTQVTVSS | low polyreactivity
QVQLVDSGGGLVQAGGSLRLRCADSGSIFRDNAMGWYRQAPGKERELVADINYRDGDTFYADSVKGRFTISRDNAKNTVYLLMNSLKPEDNAVYYCAAEWDYPWWRIVAVYGYEYWGQGTQVTVSS | low polyreactivity
QVQLVDSGGGLVQAGGSLRLSAASGSTLSGNTMGWYRQAPGKERELVAAINDSGGSTYYADSVKGRFTISRDNAKNTVYLQMNSLKPEDTAVYYCAAETGYAFDYWGQGTQVTVSS | low polyreactivity
QVQLVDSGGGLVQAGGSLRLSCAASGFIFGYYAMGWYRPAPGKERELVAAISQSTGSTYYADSVKGRFTISRDNAKNTVYLQMNSLKPEDTAVYYCNAEGPEFTTWGYVYWDWGYGYWGQGTQVTVSS | low polyreactivity
QVQLVDSGGGLVQAGGSLRLSCAASGFIFPYYAMGWYRQAPGKERELVAAITRGGRTYYADSVKGRFTISRDNAKNTVYLQMNSLKPEDTAVYYCAARAGLDGEMDYWGQGTQVTVSS | high polyreactivity
QVQLVDSGGGLVQAGGSLRLSCAASGFIFSAYTMGWYRQAPGKERELVAAISGSGVGTYYADSVKGRFTISRDNAKNTVYLQMNSLKPEDTAVYYCNAADYTAYYWEYYYWGQGTQVTVSS | low polyreactivity
QVQLVDSGGGLVQAGGSLRLSCAASGFKFGTYAMGWYRQAPGKERELVAGISRRSGSTIYADSVKGRFTISRDNAKNTVYLQMNSLKPEDTAVYYCNVDRPDATWSWWEYGYWGQGTQVTVSS | high polyreactivity
QVQLVDSGGGLVQAGGSLRLSCAASGFTFRYYAMGWYRKAPGNERELVAGISWSGSRTYYADSVKGRFTISRDNAKNTVYLQMNSLKPEDTAVYFCAKVNSYGPVPDRYDYWGQGTQVTVSS | high polyreactivity
QVQLVDSGGGLVQAGGSLRLSCAASGFTFYRYAMGWYRPAPGKERELVAGITGSGGNTYYADSVKGRFTISRDNAKNTVYLQMNSLKPEDTAVYYCAAEDYVGWYNFEYWGQGNQVTVSS | high polyreactivity
QVQLVDSGGGLVQAGGSLRLSCAASGGTFDWYTMGWYRQAPGKERELVADITSGGSTYYADSVKGRFTISRDNAKNTVYLQMNSLKPEDTAVCYCATTVYSTSGYPYDYWGQGTQVTVSS | high polyreactivity
